Source: patent US9993529B2, “Stable formulations of a hyaluronan-degrading enzyme” (Halozyme, Inc., priority 2011, dated 2018)

Assay: RP-HPLC insulin apparent solubility / percent recovery (content)
Conditions: for Solubility of Lispro: 7 days at 2-8° C.
Method in brief: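 Vial samples withdrawn at each time point, centrifuged, held at 4 °C, run in duplicate by RP-HPLC. Apparent solubility = combined insulin main and desamido peak areas as percent versus standards/initial formulation; purity = main insulin peak as percent of all insulin species.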

Which “Solubility of Lispro” value (0.2% methylparaben + […] m-cresol, pH 6.6, NaCl 50 mM) does the source give for “insulin Lispro: LysB28, ProB29 human insulin analog” here?
Its value is 42.0%.

And the “Solubility of Lispro” value (0.2% methylparaben + […] m-cresol, pH 6.6, NaCl 80 mM)?
Its value is 28.2%.

And the “Solubility of Lispro” value (0.2% methylparaben + […] m-cresol, pH 6.6, NaCl 110 mM)?
The value was 24.1%.

What about the “Solubility of Lispro” value (0.2% methylparaben + […] m-cresol, pH 6.6, NaCl 140 mM) of the same substance?
Its value is 25.9%.

What about the “Solubility of Lispro” value (0.2% methylparaben + […] m-cresol, pH 6.8, NaCl 50 mM) of the same substance?
The value was 82.3%.

What about the “Solubility of Lispro” value (0.2% methylparaben + […] m-cresol, pH 6.8, NaCl 80 mM) of the same substance?
The value was 62.6%.

What about the “Solubility of Lispro” value (0.2% methylparaben + […] m-cresol, pH 6.8, NaCl 110 mM) of the same substance?
The value was 47.8%.

And the “Solubility of Lispro” value (0.2% methylparaben + […] m-cresol, pH 6.8, NaCl 140 mM)?
Its value is 42.0%.

And the “Solubility of Lispro” value (0.2% methylparaben + […] m-cresol, pH 7.0, NaCl 50 mM)?
Its value is 95.3%.

And the “Solubility of Lispro” value (0.2% methylparaben + […] m-cresol, pH 7.0, NaCl 80 mM)?
Its value is 98.1%.

What about the “Solubility of Lispro” value (0.2% methylparaben + […] m-cresol, pH 7.0, NaCl 110 mM) of the same substance?
The value was 94.1%.

What about the “Solubility of Lispro” value (0.2% methylparaben + […] m-cresol, pH 7.0, NaCl 140 mM) of the same substance?
The value was 65.6%.

And the “Solubility of Lispro” value (0.2% methylparaben + […] m-cresol, pH 7.2, NaCl 50 mM)?
Its value is 95.7%.

What about the “Solubility of Lispro” value (0.2% methylparaben + […] m-cresol, pH 7.2, NaCl 80 mM) of the same substance?
Its value is 97.9%.

And the “Solubility of Lispro” value (0.2% methylparaben + […] m-cresol, pH 7.2, NaCl 110 mM)?
The value was 99.6%.

And the “Solubility of Lispro” value (0.2% methylparaben + […] m-cresol, pH 7.2, NaCl 140 mM)?
The value was 98.0%.

What about the “Solubility of Lispro” value (0.2% methylparaben + […] m-cresol, pH 7.4, NaCl 50 mM) of the same substance?
Its value is 95.6%.

And the “Solubility of Lispro” value (0.2% methylparaben + […] m-cresol, pH 7.4, NaCl 80 mM)?
The value was 98.2%.

What about the “Solubility of Lispro” value (0.2% methylparaben + […] m-cresol, pH 7.4, NaCl 110 mM) of the same substance?
The value was 99.9%.

What about the “Solubility of Lispro” value (0.2% methylparaben + […] m-cresol, pH 7.4, NaCl 140 mM) of the same substance?
The value was 98.5%.

And the “Solubility of Lispro” value (0.2% methylparaben + […] m-cresol, pH 7.6, NaCl 50 mM)?
The value was 95.7%.

And the “Solubility of Lispro” value (0.2% methylparaben + […] m-cresol, pH 7.6, NaCl 80 mM)?
The value was 98.3%.

And the “Solubility of Lispro” value (0.2% methylparaben + […] m-cresol, pH 7.6, NaCl 110 mM)?
The value was 100.2%.

What about the “Solubility of Lispro” value (0.2% methylparaben + […] m-cresol, pH 7.6, NaCl 140 mM) of the same substance?
Its value is 98.8%.

What about the “Solubility of Lispro” value (0.2% phenol + […] m-cresol, pH 6.6, NaCl 50 mM) of the same substance?
Its value is 52.8%.

And the “Solubility of Lispro” value (0.2% phenol + […] m-cresol, pH 6.6, NaCl 80 mM)?
The value was 32.8%.

What about the “Solubility of Lispro” value (0.2% phenol + […] m-cresol, pH 6.6, NaCl 110 mM) of the same substance?
The value was 26.0%.

And the “Solubility of Lispro” value (0.2% phenol + […] m-cresol, pH 6.8, NaCl 50 mM)?
The value was 91.4%.

What about the “Solubility of Lispro” value (0.2% phenol + […] m-cresol, pH 6.8, NaCl 80 mM) of the same substance?
Its value is 65.1%.

What about the “Solubility of Lispro” value (0.2% phenol + […] m-cresol, pH 6.8, NaCl 110 mM) of the same substance?
Its value is 44.9%.

What about the “Solubility of Lispro” value (0.2% phenol + […] m-cresol, pH 6.8, NaCl 140 mM) of the same substance?
Its value is 40.4%.

And the “Solubility of Lispro” value (0.2% phenol + […] m-cresol, pH 7.0, NaCl 50 mM)?
The value was 97.4%.

And the “Solubility of Lispro” value (0.2% phenol + […] m-cresol, pH 7.0, NaCl 80 mM)?
Its value is 95.5%.

What about the “Solubility of Lispro” value (0.2% phenol + […] m-cresol, pH 7.0, NaCl 110 mM) of the same substance?
Its value is 75.2%.

What about the “Solubility of Lispro” value (0.2% phenol + […] m-cresol, pH 7.0, NaCl 140 mM) of the same substance?
The value was 65.3%.

What about the “Solubility of Lispro” value (0.2% phenol + […] m-cresol, pH 7.2, NaCl 50 mM) of the same substance?
The value was 97.6%.

What about the “Solubility of Lispro” value (0.2% phenol + […] m-cresol, pH 7.2, NaCl 80 mM) of the same substance?
The value was 97.4%.

And the “Solubility of Lispro” value (0.2% phenol + […] m-cresol, pH 7.2, NaCl 110 mM)?
Its value is 95.2%.

And the “Solubility of Lispro” value (0.2% phenol + […] m-cresol, pH 7.2, NaCl 140 mM)?
The value was 90.8%.

And the “Solubility of Lispro” value (0.2% phenol + […] m-cresol, pH 7.4, NaCl 50 mM)?
Its value is 97.7%.

What about the “Solubility of Lispro” value (0.2% phenol + […] m-cresol, pH 7.4, NaCl 80 mM) of the same substance?
The value was 97.6%.

What about the “Solubility of Lispro” value (0.2% phenol + […] m-cresol, pH 7.4, NaCl 110 mM) of the same substance?
Its value is 97.0%.

And the “Solubility of Lispro” value (0.2% phenol + […] m-cresol, pH 7.4, NaCl 140 mM)?
Its value is 96.9%.

And the “Solubility of Lispro” value (0.2% phenol + […] m-cresol, pH 7.6, NaCl 50 mM)?
Its value is 97.5%.

What about the “Solubility of Lispro” value (0.2% phenol + […] m-cresol, pH 7.6, NaCl 80 mM) of the same substance?
Its value is 97.7%.

What about the “Solubility of Lispro” value (0.2% phenol + […] m-cresol, pH 7.6, NaCl 110 mM) of the same substance?
The value was 97.3%.

And the “Solubility of Lispro” value (0.2% phenol + […] m-cresol, pH 7.6, NaCl 140 mM)?
The value was 96.8%.

What about the “Solubility (% of 120 U/mL)” value (2-8° C., pH 7.0, after 1 week at 80, 110 or 140 mM NaCl) of the same substance?
Its value is “below 65%”.

And the “Solubility of Lispro” value ([…] phenol + […] m-cresol, pH 6.6, NaCl 50 mM)?
Its value is 60.3%.

And the “Solubility of Lispro” value ([…] phenol + […] m-cresol, pH 6.6, NaCl 80 mM)?
The value was 43.3%.

And the “Solubility of Lispro” value ([…] phenol + […] m-cresol, pH 6.6, NaCl 110 mM)?
The value was 24.2%.

What about the “Solubility of Lispro” value ([…] phenol + […] m-cresol, pH 6.6, NaCl 140 mM) of the same substance?
The value was 27.7%.

What about the “Solubility of Lispro” value ([…] phenol + […] m-cresol, pH 6.8, NaCl 50 mM) of the same substance?
Its value is 93.6%.

And the “Solubility of Lispro” value ([…] phenol + […] m-cresol, pH 6.8, NaCl 80 mM)?
The value was 60.8%.

And the “Solubility of Lispro” value ([…] phenol + […] m-cresol, pH 6.8, NaCl 110 mM)?
Its value is 44.9%.

What about the “Solubility of Lispro” value ([…] phenol + […] m-cresol, pH 6.8, NaCl 140 mM) of the same substance?
The value was 35.9%.

And the “Solubility of Lispro” value ([…] phenol + […] m-cresol, pH 7.0, NaCl 50 mM)?
The value was 98.7%.

What about the “Solubility of Lispro” value ([…] phenol + […] m-cresol, pH 7.0, NaCl 80 mM) of the same substance?
The value was 96.4%.

What about the “Solubility of Lispro” value ([…] phenol + […] m-cresol, pH 7.0, NaCl 110 mM) of the same substance?
Its value is 77.0%.

And the “Solubility of Lispro” value ([…] phenol + […] m-cresol, pH 7.0, NaCl 140 mM)?
The value was 61.2%.

What about the “Solubility of Lispro” value ([…] phenol + […] m-cresol, pH 7.2, NaCl 50 mM) of the same substance?
The value was 100.5%.

And the “Solubility of Lispro” value ([…] phenol + […] m-cresol, pH 7.2, NaCl 80 mM)?
Its value is 99.2%.

And the “Solubility of Lispro” value ([…] phenol + […] m-cresol, pH 7.2, NaCl 110 mM)?
Its value is 97.3%.

And the “Solubility of Lispro” value ([…] phenol + […] m-cresol, pH 7.2, NaCl 140 mM)?
The value was 93.1%.

What about the “Solubility of Lispro” value ([…] phenol + […] m-cresol, pH 7.4, NaCl 50 mM) of the same substance?
The value was 100.8%.

And the “Solubility of Lispro” value ([…] phenol + […] m-cresol, pH 7.4, NaCl 80 mM)?
The value was 101.8%.

And the “Solubility of Lispro” value ([…] phenol + […] m-cresol, pH 7.4, NaCl 110 mM)?
The value was 100.7%.

And the “Solubility of Lispro” value ([…] phenol + […] m-cresol, pH 7.4, NaCl 140 mM)?
The value was 98.4%.

And the “Solubility of Lispro” value ([…] phenol + […] m-cresol, pH 7.6, NaCl 50 mM)?
Its value is 100.9%.

What about the “Solubility of Lispro” value ([…] phenol + […] m-cresol, pH 7.6, NaCl 80 mM) of the same substance?
The value was 102.1%.

And the “Solubility of Lispro” value ([…] phenol + […] m-cresol, pH 7.6, NaCl 110 mM)?
The value was 101.6%.

What about the “Solubility of Lispro” value ([…] phenol + […] m-cresol, pH 7.6, NaCl 140 mM) of the same substance?
The value was 101.3%.
